Assay results reported in publication PMC4882731 (Journal of the American Chemical Society, 2016).
Blank lines part the entries; values can stand above or below the molecule they belong to.

Assays:
[1] = target: ChlI, C-terminally attached to the surface via His6 tag (Synechocystis) (UniProt P51634); assay: single molecule force spectroscopy
[2] = target: ChlD wild-type (Synechocystis, UniProt P72772 1-676); assay: MST
[3] = target: ChlD R289A (Synechocystis, UniProt P72772 1-676, R289A); assay: MST
[4] = target: ChlD R208A (Synechocystis, UniProt P72772 1-676, R208A); assay: MST
ChlD R208A, sequence (P72772 whole entry R208A): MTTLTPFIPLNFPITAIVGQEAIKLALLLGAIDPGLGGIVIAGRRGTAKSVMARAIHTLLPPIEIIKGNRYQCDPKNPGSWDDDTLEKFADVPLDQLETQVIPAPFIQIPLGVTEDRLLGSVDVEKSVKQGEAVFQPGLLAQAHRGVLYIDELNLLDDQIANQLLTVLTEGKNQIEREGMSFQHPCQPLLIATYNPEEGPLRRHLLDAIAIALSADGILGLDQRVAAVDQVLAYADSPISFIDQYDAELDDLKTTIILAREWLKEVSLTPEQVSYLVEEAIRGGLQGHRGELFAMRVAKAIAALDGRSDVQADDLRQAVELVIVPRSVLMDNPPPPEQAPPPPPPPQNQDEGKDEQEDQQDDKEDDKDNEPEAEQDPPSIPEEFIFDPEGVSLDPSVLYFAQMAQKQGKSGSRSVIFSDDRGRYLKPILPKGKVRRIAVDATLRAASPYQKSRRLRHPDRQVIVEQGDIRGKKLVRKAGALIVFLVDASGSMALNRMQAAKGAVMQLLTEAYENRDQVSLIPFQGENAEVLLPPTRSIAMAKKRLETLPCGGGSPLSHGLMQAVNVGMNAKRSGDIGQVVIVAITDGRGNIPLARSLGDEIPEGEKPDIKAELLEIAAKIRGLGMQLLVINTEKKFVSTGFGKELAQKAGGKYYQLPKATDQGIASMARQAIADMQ

ChlD wild-type, sequence (P72772 whole entry): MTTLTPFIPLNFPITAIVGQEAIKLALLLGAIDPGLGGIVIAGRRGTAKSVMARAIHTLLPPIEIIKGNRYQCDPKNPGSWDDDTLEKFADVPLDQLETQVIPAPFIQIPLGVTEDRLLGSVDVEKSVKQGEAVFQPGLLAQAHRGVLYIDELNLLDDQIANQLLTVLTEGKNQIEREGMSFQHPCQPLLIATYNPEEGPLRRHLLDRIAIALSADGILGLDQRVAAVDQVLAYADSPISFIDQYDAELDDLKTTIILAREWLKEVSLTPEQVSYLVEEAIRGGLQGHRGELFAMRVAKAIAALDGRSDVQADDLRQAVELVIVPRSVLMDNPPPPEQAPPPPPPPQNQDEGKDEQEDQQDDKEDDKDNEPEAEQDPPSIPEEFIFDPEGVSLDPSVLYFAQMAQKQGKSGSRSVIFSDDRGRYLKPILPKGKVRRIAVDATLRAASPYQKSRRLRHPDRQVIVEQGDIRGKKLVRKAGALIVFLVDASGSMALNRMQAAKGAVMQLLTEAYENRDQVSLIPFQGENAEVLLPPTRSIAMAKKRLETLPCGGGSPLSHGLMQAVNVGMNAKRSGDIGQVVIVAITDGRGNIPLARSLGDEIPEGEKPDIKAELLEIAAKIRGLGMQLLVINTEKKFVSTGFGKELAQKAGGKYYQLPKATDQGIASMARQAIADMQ
ChlD R289A, sequence (P72772 whole entry R289A): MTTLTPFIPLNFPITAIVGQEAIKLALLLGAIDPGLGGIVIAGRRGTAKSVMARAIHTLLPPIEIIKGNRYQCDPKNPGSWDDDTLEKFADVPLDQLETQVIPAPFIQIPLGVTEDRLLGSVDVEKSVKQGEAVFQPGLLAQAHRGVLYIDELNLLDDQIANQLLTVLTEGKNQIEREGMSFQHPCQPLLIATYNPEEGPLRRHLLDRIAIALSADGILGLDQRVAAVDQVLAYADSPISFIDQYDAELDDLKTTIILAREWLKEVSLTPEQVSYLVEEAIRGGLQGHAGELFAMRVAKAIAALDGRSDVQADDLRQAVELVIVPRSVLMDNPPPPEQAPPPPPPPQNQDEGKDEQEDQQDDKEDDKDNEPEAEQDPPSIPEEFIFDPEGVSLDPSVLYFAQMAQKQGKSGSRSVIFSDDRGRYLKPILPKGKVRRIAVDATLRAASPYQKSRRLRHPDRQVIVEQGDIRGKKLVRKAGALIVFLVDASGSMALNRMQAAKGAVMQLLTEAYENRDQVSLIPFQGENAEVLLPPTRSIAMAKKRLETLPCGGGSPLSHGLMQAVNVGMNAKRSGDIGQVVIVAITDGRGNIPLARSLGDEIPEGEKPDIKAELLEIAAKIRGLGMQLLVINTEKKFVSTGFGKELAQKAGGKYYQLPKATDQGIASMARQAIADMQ

interaction probability [1]: 30.5%
modal interaction force [1]: 108 pN
rupture force [1]: 109 pN
Molecule: ChlD tagged at the C-terminus with a His6 sequence (from UniProt P72772 1-676) (natural protein)

Kd [2]: 7.6 ± 0.8 nM
Kd [3]: 2540 ± 219 nM
Kd [4]: 328 ± 67.7 nM
B1: ChlI C244S Alexa Fluor 488 (natural protein, Synechocystis, UniProt P51634 1-357, looked up)
chain: MTATLAAPSKTRRVVFPFTAIVGQDEMKLALLLNVIDPKIGGVMIMGDRGTGKSTTIRALADLLPEIEVVANDPFNSSPSDPEMMSEEVRIRVDSQEPLSIVKKKVTMVDLPLGATEDRVCGTIDIEKALSEGVKAFEPGLLAKANRGILYVDEVNLLDDHLVDVLLDSAAGGWNTVEREGISIRHPARFVLVGSGNPEEGELRPQLLDRFGMHAEIRTVREPELRVKIVEQRTEFDQNPHPFSDQYQTEQEALQAKIVNAQNLLPQVTIDYDYRVKVSEVCAELDVDGLRGDIVTNRAAKALAAFEGRTEVTVDDISRVIVLCLRHRLRKDPLESIDSGSKVEKVFKRVFGVVDEA
modifications: Alexa Fluor 488 C5 maleimide label (labelled residue not stated)
